In patent US20180117147A1:

Legend:
[1] = target: human KIR2DL3 expressed on NK and T lymphocytes of KIR2DL3 transgenic C57Bl/6 mice (human) (UniProt P43628); test: in vivo receptor occupancy in KIRtgB6 mice, 10 mg/kg iv, for 8 days
[2] = target: human KIR2DL3 expressed on NK and T lymphocytes of KIR2DL3 transgenic C57Bl/6 mice (human) (UniProt P43628); test: in vivo receptor occupancy in whole blood of KIRtgB6 mice, 20 mg/kg iv, for 14 days

UniProt P43628, sequence (P43628 22-341): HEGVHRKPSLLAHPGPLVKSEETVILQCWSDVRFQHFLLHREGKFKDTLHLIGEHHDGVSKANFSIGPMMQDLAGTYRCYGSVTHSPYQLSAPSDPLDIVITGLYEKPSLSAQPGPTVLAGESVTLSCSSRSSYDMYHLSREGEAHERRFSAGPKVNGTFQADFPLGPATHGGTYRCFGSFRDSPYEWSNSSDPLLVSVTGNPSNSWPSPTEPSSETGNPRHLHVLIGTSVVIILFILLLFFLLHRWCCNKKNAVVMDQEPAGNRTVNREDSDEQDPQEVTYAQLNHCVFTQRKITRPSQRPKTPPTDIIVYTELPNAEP

KIR receptor occupancy [1]: > 90%
KIR receptor occupancy [2]: > 90%
Substance: Anti-KIR antibody clone GL183
